What was measured:
[1] = biological target: human TGFβ1 (human) (UniProt P01137); assay: Octet, ES014-1 on sensor, TGFβ gradient
[2] = biological target: human TGFβ1 (human) (UniProt P01137); assay: ELISA, blocking of TGFβRII-His binding to coated TGFβ1
[3] = biological target: human TGFβ1 (human) (UniProt P01137); assay: ELISA, coated human TGFβ1
[4] = biological target: human CD39 protein (Octet assays) (human); assay: Octet, ES014-1 on sensor, CD39 protein gradient
[5] = biological target: human CD39 (human) (UniProt P49961); assay: cell-based or functional assay
Sequence of human CD39 (human) (P49961 whole entry): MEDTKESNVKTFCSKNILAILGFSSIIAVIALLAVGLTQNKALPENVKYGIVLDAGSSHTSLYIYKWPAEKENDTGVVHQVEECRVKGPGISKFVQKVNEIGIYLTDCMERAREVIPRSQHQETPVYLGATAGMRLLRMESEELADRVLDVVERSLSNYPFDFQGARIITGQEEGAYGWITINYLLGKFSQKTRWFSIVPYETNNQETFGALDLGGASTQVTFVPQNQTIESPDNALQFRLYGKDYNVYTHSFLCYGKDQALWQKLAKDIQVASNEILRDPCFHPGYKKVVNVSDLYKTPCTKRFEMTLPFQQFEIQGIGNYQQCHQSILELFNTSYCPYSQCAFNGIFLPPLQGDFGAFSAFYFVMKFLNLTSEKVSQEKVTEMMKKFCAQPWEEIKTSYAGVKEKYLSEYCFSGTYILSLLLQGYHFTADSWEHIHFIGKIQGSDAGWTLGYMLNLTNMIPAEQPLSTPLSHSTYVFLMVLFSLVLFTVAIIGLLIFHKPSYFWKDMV

Sequence of human TGFβ1 (human) (P01137 279-390 limits assumed): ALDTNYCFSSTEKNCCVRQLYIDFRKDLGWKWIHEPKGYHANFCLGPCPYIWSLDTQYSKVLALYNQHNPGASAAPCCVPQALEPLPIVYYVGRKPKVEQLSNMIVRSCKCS

Kd [1]: 0.037 nM
koff [1]: 0.000234 s⁻¹
kon [1]: 6.32e+06 M⁻¹ s⁻¹
IC50 [2]: 3.73 nM
EC50 [3]: 0.26 nM
Kd [4]: 0.376 nM
koff [4]: 3.44e-05 s⁻¹
kon [4]: 91400 M⁻¹ s⁻¹
IC50 to CD39 ATPase activity on MOLP-8 cells (CellTiterGlo) [5]: 1.21 nM
Substance: ES014-1 (bispecific antibody)
